Measurements as given in publication PMC6213277.

Experiments:
[1] = biological target: McjD-C547 (cys-less McjD with the native cysteine C547 only), labelled with Alexa555 and Alexa647 (Escherichia coli) (UniProt Q9X2W0); experiment: FRET or BRET; single-molecule FRET, confocal scanning, 10 ms time resolution; labelled McjD reconstituted in biotin-DOPE proteoliposomes (protein to lipid ~1:1,000 w/w) immobilised through neutravidin on PEG-biotin coverslips; oxygen-free buffer with Trolox; FRET between the single cysteines of the two protomers
[2] = biological target: McjD L67C (single cysteine in cys-less McjD), labelled with Alexa555 and Alexa647 (Escherichia coli) (UniProt Q9X2W0)
[3] = biological target: McjD Y64C (single cysteine in cys-less McjD), labelled with Alexa555 and Alexa647 (Escherichia coli) (UniProt Q9X2W0)

lifetime of the dimerized ATP-free NBD state [1] [ms] | mean apparent FRET efficiency E* between the dyes at L67C of the two protomers (opening of the TMD), proteoliposomes, with 10 mM ATP and 200 uM MccJ25 (apo 0.69) [2] | mean apparent FRET efficiency E* between the dyes at L67C of the two protomers (opening of the periplasmic gate of the TMD), detergent, with ATP + MccJ25 (apo 0.95; ATP alone 0.95) [2] | mean apparent FRET efficiency E* between the dyes at Y64C of the two protomers (opening of the TMD), proteoliposomes, with 10 mM ATP and 200 uM MccJ25, first population (apo 0.81 & 0.60) [3] | mean apparent FRET efficiency E* between the dyes at Y64C of the two protomers (opening of the TMD), proteoliposomes, with 10 mM ATP and 200 uM MccJ25, second population (apo 0.81 & 0.60) [3] | mean apparent FRET efficiency E* between the dyes at Y64C of the two protomers (opening of the periplasmic gate of the TMD), detergent, with ATP + MccJ25 (apo 1.07; ATP alone 1.01) [3] | Molecule
82 | – | – | – | – | – | McjD-C547 (cys-less McjD with the native cysteine C547 only), labelled with Alexa555 and Alexa647 (from UniProt Q9X2W0 1-580) (natural protein)
– | 0.51 | 0.83 | 0.82 | 0.52 | 0.91 | GGAGHVPEYFVGIGTPISFYG [antibacterial peptide MccJ25]
